Target: T1, CasEnd-14 (synthetic construct)
T1 chain: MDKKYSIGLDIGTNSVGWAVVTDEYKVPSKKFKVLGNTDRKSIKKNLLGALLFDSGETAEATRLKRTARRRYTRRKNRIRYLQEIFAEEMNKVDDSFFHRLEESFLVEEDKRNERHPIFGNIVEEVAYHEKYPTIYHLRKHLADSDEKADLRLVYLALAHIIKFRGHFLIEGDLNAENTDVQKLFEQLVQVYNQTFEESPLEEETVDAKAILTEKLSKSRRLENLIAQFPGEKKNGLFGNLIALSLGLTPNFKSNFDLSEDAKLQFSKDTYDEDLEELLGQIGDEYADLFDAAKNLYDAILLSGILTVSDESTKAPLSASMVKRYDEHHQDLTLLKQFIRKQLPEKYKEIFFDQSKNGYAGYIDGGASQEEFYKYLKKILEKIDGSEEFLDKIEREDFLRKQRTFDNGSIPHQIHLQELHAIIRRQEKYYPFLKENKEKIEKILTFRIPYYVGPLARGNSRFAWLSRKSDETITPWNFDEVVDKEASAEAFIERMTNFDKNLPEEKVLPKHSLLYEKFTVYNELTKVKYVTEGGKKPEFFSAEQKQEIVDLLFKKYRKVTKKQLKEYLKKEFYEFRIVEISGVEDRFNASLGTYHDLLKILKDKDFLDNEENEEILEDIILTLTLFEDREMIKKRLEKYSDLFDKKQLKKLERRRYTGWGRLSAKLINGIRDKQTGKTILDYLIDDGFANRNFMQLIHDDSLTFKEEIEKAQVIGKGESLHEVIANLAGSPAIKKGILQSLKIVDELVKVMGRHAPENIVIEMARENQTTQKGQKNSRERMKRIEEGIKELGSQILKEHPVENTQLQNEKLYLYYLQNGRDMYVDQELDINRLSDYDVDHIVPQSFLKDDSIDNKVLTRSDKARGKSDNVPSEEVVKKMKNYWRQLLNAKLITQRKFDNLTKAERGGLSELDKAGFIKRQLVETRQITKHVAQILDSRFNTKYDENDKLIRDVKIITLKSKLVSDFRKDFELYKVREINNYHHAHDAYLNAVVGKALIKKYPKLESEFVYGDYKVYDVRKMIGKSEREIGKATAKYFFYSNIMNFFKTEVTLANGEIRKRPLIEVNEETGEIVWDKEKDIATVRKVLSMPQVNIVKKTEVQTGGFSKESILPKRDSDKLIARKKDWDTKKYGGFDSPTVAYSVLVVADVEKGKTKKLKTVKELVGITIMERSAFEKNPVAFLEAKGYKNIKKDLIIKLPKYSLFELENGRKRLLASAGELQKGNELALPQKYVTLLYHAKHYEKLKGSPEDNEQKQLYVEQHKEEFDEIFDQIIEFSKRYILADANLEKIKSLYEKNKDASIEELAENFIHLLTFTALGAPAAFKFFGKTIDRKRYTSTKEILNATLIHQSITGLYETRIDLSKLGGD
Experiment: cell_activity; +++; HEK293T; PAM not stated
Procedure: The ability of the candidate endonucleases, including endonucleases 1-38 (CasEnds 1-38) (set forth in Table 1 and SEQ ID NOS: 1-38, respectively), to mediate target nucleic acid editing was assessed utilizing a blue fluorescent protein (BFP) to green fluorescent protein (GFP) conversion assay, wherein programmed nucleotide editing of the BFP gene was measured by the expression of GFP (signifying the conversion of […] via the programmed nucleotide edit in the BFP gene). The conversion assay was conducted utilizing the reverse transcriptase-based system (as described above in Example 2) comprising a template RNA (designed to convert BFP to GFP) and a fusion protein comprising a retroviral reverse transcriptase and the individual subject Cas endonuclease. The amino acid sequence of the base portion of the fusion protein (without the individual subject Cas endonuclease) is set forth in Table 7 (SEQ ID NO: 43).
Briefly, 200 ng of plasmid DNA encoding the subject fusion protein (containing one of the subject CasEnds) and 200 ng of template RNA (in plasmid format) were added to 25 μL SF buffer containing 250,000 HEK293T BFP-expressing cells. Nucleofection was mediated utilizing program DS-150. The day of nucleofection was marked as day 0. At day 4, the cells were harvested and analyzed by flow cytometry to assess the level of BFP and GFP expression in HEK293T cells. Cells having GFP signal were defined as having undergone a successful editing event, and the percent of cells that were GFP+ on day 4 was used to determine the performance of each Cas endonuclease.

B1: BFP-to-GFP template RNA ; BFP reporter protospacer (ssRNA ; dsDNA)
RNA: GCCGAAGCACUGCACGCCGUGUUUUAGAGCUAGAAAUAGCAAGUUAAAAUAAGGCUAGUCCGUUAUCAACUUGAAAAAGUGGCACCGAGUCGGUGCACCCUGACGUACGGCGUGCAGUGCUU
DNA 1: GCCGAAGCACTGCACGCCGT
DNA 2: ACGGCGTGCAGTGCTTCGGC
activity: ≥ 100 % of reference
